This note sets out measurements from article PMC7749160, “Mycobacterial HelD is a nucleic acids-clearing factor for RNA polymerase” (Nature Communications, 2020).

The target in test [1] is T1, β subunit of Mycobacterium smegmatis RNA polymerase (as in the recombinant core m2) (Mycobacterium smegmatis, UniProt P60281 1-1169).
T1 construct: RNA polymerase subunit β, Mycobacterium smegmatis; In the cryo-EM sample it stood on one chain with β′ (β–β′ fusion of m2), within the core enzyme; also called RNAP β; source: E. coli BL21(DE3), purified as part of the RNAP core (β–β′ fusion)
T1 sequence: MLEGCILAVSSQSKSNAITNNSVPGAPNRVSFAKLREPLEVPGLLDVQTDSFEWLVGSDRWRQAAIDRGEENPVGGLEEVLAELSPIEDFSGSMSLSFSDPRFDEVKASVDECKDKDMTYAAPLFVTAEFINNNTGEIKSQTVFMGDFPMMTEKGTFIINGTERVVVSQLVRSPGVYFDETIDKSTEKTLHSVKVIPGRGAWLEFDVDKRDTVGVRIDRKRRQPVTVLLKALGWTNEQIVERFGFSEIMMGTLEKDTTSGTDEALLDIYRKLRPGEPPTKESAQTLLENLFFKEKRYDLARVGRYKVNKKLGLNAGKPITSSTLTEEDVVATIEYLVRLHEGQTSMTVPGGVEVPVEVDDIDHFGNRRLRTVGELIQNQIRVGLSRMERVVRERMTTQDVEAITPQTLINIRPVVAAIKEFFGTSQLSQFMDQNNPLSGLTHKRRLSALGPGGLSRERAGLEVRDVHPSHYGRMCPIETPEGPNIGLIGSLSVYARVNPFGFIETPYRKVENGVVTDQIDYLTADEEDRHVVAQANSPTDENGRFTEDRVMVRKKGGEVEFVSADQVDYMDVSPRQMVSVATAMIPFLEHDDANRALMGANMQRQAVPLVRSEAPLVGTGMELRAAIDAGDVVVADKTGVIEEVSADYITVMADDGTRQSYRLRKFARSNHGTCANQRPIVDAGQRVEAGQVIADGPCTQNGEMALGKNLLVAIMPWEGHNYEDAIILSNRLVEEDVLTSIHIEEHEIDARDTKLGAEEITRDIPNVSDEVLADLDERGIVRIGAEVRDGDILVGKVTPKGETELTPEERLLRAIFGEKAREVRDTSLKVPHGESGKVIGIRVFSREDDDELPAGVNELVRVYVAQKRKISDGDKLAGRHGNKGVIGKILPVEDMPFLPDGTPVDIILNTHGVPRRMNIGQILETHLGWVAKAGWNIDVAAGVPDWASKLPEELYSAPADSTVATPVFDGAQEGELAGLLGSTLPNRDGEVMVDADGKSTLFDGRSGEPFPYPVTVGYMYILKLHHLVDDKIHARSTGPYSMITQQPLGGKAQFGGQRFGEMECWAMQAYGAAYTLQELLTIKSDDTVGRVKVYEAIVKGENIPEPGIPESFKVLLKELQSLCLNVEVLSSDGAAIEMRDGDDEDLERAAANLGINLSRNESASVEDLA
Briefly: cryo-EM structure; HelD and RNAP core mixed at a molar ratio of 3:1, 4 °C, 15 min; complex isolated on Superose 6 Increase in 20 mM Tris-HCl pH 7.8, 150 mM NaCl, 10 mM MgCl2, 1 mM DTT; three states (I, II, III) from one sample. Conditions: both partners purified.

Test [2] concerns the target T2, β′ subunit of Mycobacterium smegmatis RNA polymerase (as in the recombinant core m2) (Mycobacterium smegmatis, UniProt A0QS66 1-1317).
T2 construct: RNA polymerase subunit β′, Mycobacterium smegmatis; In the cryo-EM sample it stood on one chain with β (β–β′ fusion of m2), within the core enzyme; also called RNAP β′; source: E. coli BL21(DE3), purified as part of the RNAP core (β–β′ fusion)
The test is described as above. Conditions: both partners purified.

B1: Mycobacterium smegmatis HelD (MSMEG_2174), recombinant (natural protein, UniProt A0QUE0 2-736, looked up)
chain: SGRDYEDELQSERDYVAGLYARLDAERAQSQRRYAAALREHGGTAVERDAEVRALAKDIARLNVADNGLCFGRLDTLDDARLYIGRLGIFDRDNDFEPLLLDWRAPMARPFYVATAANPENMRRRRQFHTLGRKVVDFTDEILGRPTGAEHDATNDAALLAAVNAPRGEGMRDIVATIQAEQDQVIRLDHTGVLVIEGGPGTGKTVVALHRVAYLLYTYRKQMERHGVLVVGPTPAFLDHIGRVLPSLGESDAVFMTPGDFVPGLHVTAEDTPEAAEVKGSLKILDVLKAAVADRQELPSEPIPIDLSDVTMRIDAETAKWARDEARKTGLPHNEARAEFVDVVTYVVTERAVARIGRGWLTRDDKHAWEKMRADVVGELEDHEQFNAALDALWPILTPEDVLAQLYTSHERLRAAGAPECLWRADGEAWTVSDVPLLDELVDLLGRNKAADEAAERERREEEAYAAGVLDLMVDREDLMDDEDHLLAQDLIDAEELADRFKEQDNRELSERAAADREWTYGHVVVDEAQELSEMDWRLLMRRCPRRSFTIVGDLAQRRSPAGARSWGAMLDSYVPGRWVYKSLSVNYRTPAEIMAVAAAVLAEFAPDATPPDSVRACGVAPWARQVTDDDIASAIAEFVSEEAGREGTSVVIGPPDVPGTVPPSETKGLEFDAVLVVEPERILADGPRGAAELYVALTRATQRLGVLYRDALPQALAGLAEGDAAATVEQRTSA
notes: HelD, gene MSMEG_2174 of Mycobacterium smegmatis strain ATCC 700084/mc2 155; the tag is followed by the second amino acid of MSMEG_2174; Codon-optimised synthetic gene in pET302/NT-His; also called Msm HelD; source: E. coli Lemo 21 (DE3), purified (HisTrap, TEV protease, Superdex 75)
For the molecule B1, the binding result in test [1] and in test [2] was “binds” throughout.
